In PMC6539845 (International Journal of Molecular Sciences, 2019):
“And” between values parts separate entries of the source, which are not always exact repeats. Equal values may be shown once.

B1: human proteasome α5 subunit (natural protein, UniProt P28066 1-241, looked up)
chain: MFLTRSEYDRGVNTFSPEGRLFQVEYAIEAIKLGSTAIGIQTSEGVCLAVEKRITSPLMEPSSIEKIVEIDAHIGCAMSGLIADAKTLIDKARVETQNHWFTYNETMTVESVTQAVSNLALQFGEEDADPGAMSRPFGVALLFGGVDEKGPQLFHMDPSGTFVQCDARAIGSASEGAQSSLQEVYHKSMTLKEAIKSSLIILKQVMEEKLNATNIELATVQPGQNFHMFTKEELEEVIKDI
notes: proteasome subunit α5 (PSMA5), human, residues 1-241; the vector holds a TEV protease cleavage site preceding the gene; also called PSMA5
B2: human proteasome α2 subunit (natural protein, UniProt P25787 1-234, looked up)
chain: MAERGYSFSLTTFSPSGKLVQIEYALAAVAGGAPSVGIKAANGVVLATEKKQKSILYDERSVHKVEPITKHIGLVYSGMGPDYRVLVHRARKLAQQYYLVYQEPIPTAQLVQRVASVMQEYTQSGGVRPFGVSLLICGWNEGRPYLFQSDPSGAYFAWKATAMGKNYVNGKTFLEKRYNEDLELEDAIHTAILTLKESFEGQMTEDNIEVGICNEAGFRRLTPTEVKDYLAAIA
notes: proteasome subunit α2 (PSMA2), human, residues 1-234; subcloned into the NdeI and XhoI sites of pRSFDuet-1; no tag is named; also called PSMA2
B3: human proteasome α3 subunit (natural protein, UniProt P25789 1-261, looked up)
chain: MSRRYDSRTTIFSPEGRLYQVEYAMEAIGHAGTCLGILANDGVLLAAERRNIHKLLDEVFFSEKIYKLNEDMACSVAGITSDANVLTNELRLIAQRYLLQYQEPIPCEQLVTALCDIKQAYTQFGGKRPFGVSLLYIGWDKHYGFQLYQSDPSGNYGGWKATCIGNNSAAAVSMLKQDYKEGEMTLKSALALAIKVLNKTMDVSKLSAEKVEIATLTRENGKTVIRVLKQKEVEQLIKKHEEEEAKAEREKKEKEQKEKDK
notes: proteasome subunit α3 (PSMA4), human, residues 1-261; the vector holds a TEV protease cleavage site preceding the gene; also called PSMA4
B4: human proteasome α1 subunit (natural protein)
chain: not shown
notes: proteasome subunit α1 (PSMA6), human, residues 1-246; subcloned into the NdeI and SalI sites of pET28b; also called PSMA6
B5: human proteasome α4 subunit (natural protein, UniProt O14818 1-248, looked up)
chain: MSYDRAITVFSPDGHLFQVEYAQEAVKKGSTAVGVRGRDIVVLGVEKKSVAKLQDERTVRKICALDDNVCMAFAGLTADARIVINRARVECQSHRLTVEDPVTVEYITRYIASLKQRYTQSNGRRPFGISALIVGFDFDGTPRLYQTDPSGTYHAWKANAIGRGAKSVREFLEKNYTDEAIETDDLTIKLVIKALLEVVQSGGKNIELAVMRRDQSLKILNPEEIEKYVAEIEKEKEENEKKKQKKAS
notes: proteasome subunit α4 (PSMA7), human, residues 1-248; subcloned into the NdeI and SalI sites of pET28b; also called PSMA7

Molecular target: the molecule itself
Assay: native MS; single proteins, 5–20 μM monomers, 150 mM ammonium acetate (pH 6.8–8.0), nanoflow electrospray
Conditions: not given
In the case of B1, the “stoichiometry N” value is reported as 2. In the case of B2, the “stoichiometry N” value is reported as 2. For B3, the “stoichiometry N” value was 2. In the case of B4, the “stoichiometry N” value is reported as 2. For B5, the “stoichiometry N” value was 2.

What follows are binders tested against T1, human proteasome α7 subunit, wild type (human, UniProt P25788 1-255) (assay: native MS; α4 or α6 (4 μM monomers) mixed with α7 (2 μM tetradecamer), 20 °C, 1 h, 150 mM ammonium acetate). Conditions: both partners purified.
T1 construct: proteasome subunit α7 (PSMA3), human, residues 1-255; wild-type construct in pRSFDuet-1; also called PSMA3; α7 homotetradecamer; copies: 14
T1 sequence (P25788 whole entry, the tested form may be a part): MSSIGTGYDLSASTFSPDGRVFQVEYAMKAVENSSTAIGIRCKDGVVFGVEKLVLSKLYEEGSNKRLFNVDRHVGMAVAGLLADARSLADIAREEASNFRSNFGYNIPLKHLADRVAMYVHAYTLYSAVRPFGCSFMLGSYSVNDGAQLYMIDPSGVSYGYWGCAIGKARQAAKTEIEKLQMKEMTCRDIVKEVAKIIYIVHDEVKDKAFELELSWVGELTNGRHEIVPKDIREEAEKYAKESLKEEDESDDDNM
With B5 the “stoichiometry N” value was 7 α7 subunits per α4 and 14 α7 subunits per α4.
